Results from patent US11078465B2, “Alcohol dehydrogenase mutant and application thereof in synthesis of diaryl chiral alcohols” (Jiangnan University, priority 2018, dated 2021).
Where a chain is given by its changes, count along the chain named. Numbers in names are those of the source. Where “and” joins values, the source holds several entries; their conditions need not be identical. Equal values may be shown once. Entries after “also recorded” stand apart in the source; their conditions may differ.

Experiments:
Assay type in all cases: biochemical
[1] = Stereoselectivity (ee) of CPMK reduction, chiral liquid chromatography
Experimental: (§1) In an embodiment of the present disclosure, a chromatographic analysis method is as follows: 100 μL of reactant liquid is taken, 500 μL of ethyl acetate is added, shaking is performed for 1-2 min, centrifugation is performed at 12,000 rpm for 2-5 min, supernatant liquid is taken into a centrifuge tube, after an organic phase naturally volatilizes completely, 500 μL of chromatographically pure ethanol is added, and chiral liquid chromatography and gas chromatography are performed to analyze the transformation rate and the ee value.
(§2) Method for determining optical purity ee:
(§3) As: molar concentration of (S)-CPMA obtained by liquid chromatography; and AR: molar concentration of (R)-CPMA obtained by liquid chromatography.

[2] = Substrate specificity, specific activity
Experimental: (§4) Adopting a total reaction system of 200 μL, including: 1.0 mM NADPH, 1.0 mM substrate CPMK and sodium phosphate buffer (PBS, 100 mM, pH 7.0), fully and evenly mixing, maintaining at 30° C. for 2 min, adding an appropriate amount of enzyme solution, and detecting the change in light absorption at 340 nm.
(§5) The enzyme activity was calculated by the following formula: Enzyme activity (U)=EW×V×10^3/(6220×I);
(§6) in the formula, EW is the change in absorbance at 340 nm in 1 min; V is the volume of a reaction solution in mL; 6220 is the molar extinction coefficient of NADPH in L/mol·cm); and 1 is the optical path distance in cm. One activity unit (U) corresponds to the amount of enzyme required to catalyze the oxidation of 1 μmol NADPH per minute under the above conditions.
(§7) The reduction on prochiral carbonyl compounds by the alcohol dehydrogenase mutants obtained in Example 3 was studied. The pro-chiral carbonyl compounds include (4-chlorophenyl)-(pyridin-2-yl)-methanone (CPMK), phenyl-(pyridin-2-yl)-methanone, (4-chlorophenyl)-(phenyl)-methanone, (4-bromophenyl)(phenyl)methanone, (4-fluorophenyl)(phenyl)methanone, (4-methoxyphenyl)-(phenyl)-methanone, (4-nitrophenyl)(phenyl)methanone, 1-(pyridin-2-yl)ethanone, acetophenone, 4′-Chloroacetophenone, 4-chlorophenacyl chloride, ethyl 2-oxo-4-phenylbutanoate (OPBE), ethyl 4-chloro-3-oxobutanoate, and methyl 2-oxo-2-phenylacetate.

[3] = Stereoselectivity on different substrates; settings: for Stereoselectivity (ee): configuration in brackets
Experimental: as §1, §2, §3, §7
All the products above were recrystallized from ethyl acetate and gave more than 99.9% optical purity.

[4] = Stereoselectivity on different substrates; settings: configuration in brackets
Experimental: as §1, §2, §3, §7

[5] = Asymmetric reduction in 20 mL biocatalytic system, conversion
Experimental: as §1
The pure (R)-CPMA were recrystallized from ethyl acetate at 4° C. and gave 99.9% optical purity. […] Besides, the conversion cannot reach 100% with 24 h in the asymmetric reduction of (4-bromophenyl)-(phenyl)-methanone and p-nitrobenzophenone due to the low enzyme activity.

[6] = Kinetic analysis of alcohol dehydrogenase and mutants (NADPH oxidation, 340 nm, double reciprocal curve); settings: substrate CPMK
Experimental: as §4, §5, §6
A column used for purification was a nickel affinity column HisTrap FF crude, and purification was achieved through affinity chromatography using a histidine tag on recombinant protein. The nickel column was equilibrated with a solution A first, a crude enzyme solution was loaded, a penetrating peak was further eluted off using the solution A, and after equilibrium, a solution B (20 mM sodium phosphate, 500 mM NaCl, and 1000 mM imidazole, pH 7.4) was used for gradient elution to elute off the recombinant protein bound to the nickel column, so as to obtain the recombinant alcohol dehydrogenase mutant. The purified protein was subjected to activity measurement (CPMK as substrate, and NADPH as coenzyme) and SDS-PAGE analysis. […] The purified alcohol dehydrogenase protein was then replaced into a Tris-HCl (100 mM, pH 7.0) buffer using a Hi Trap Desalting column (GE Healthcare).
The activity of KpADH at different substrate concentrations and coenzyme concentrations was determined, and a double reciprocal curve was made based on the reciprocal of activity and substrate concentration to calculate kinetic parameters.

[7] = product configuration in brackets
[8] = substrate [drawing 6], 4-chlorophenacyl chloride
[9] = substrate [drawing 9], ethyl 4-chloro-3-oxobutanoate
[10] = substrate [drawing 10], acetophenone
[11] = substrate [drawing 11], 4-chloroacetophenone
[12] = substrate [drawing 12], 4-chlorobenzoyl chloride
[13] = substrate [drawing 16], (4-bromophenyl)-(phenyl)-methanone
[14] = substrate [drawing 17], p-nitrobenzophenone
[15] = substrate [drawing 14], likely CPMK (values partly match Table 4)

B1: E214G/S237C: glycine for glutamate at position 214 and cysteine for serine at position 237 of SEQ ID No. 2 (protein)
chain: MSVLISGASGYIAKHIVRVLLEQNYKVIGTVRSQDKADKLLKQYNNPNLSYEIVPEIANLDAFDDIFKKHGKEIKYVIHAASPVNFGAKDLEKDLVIPAINGTKNMFEAIKKYAPDTVERVVMTASYASIMTPHRQNDPTLTLDEETWNPVTEENAYENVFTAYCASKTFAEKEAWKFVKENSDAVKFKLTTIHPSFVFGPQNFDEDVTKKLNGTCEIINGLLHAPFDTKVEKTHFCQFIDVRDVAKTHVLGFQKDELINQRLLLCNGAFSQQDIVNVFNEDFPELKGQFPPEDKDTDLNKGVTGCKIDNEKTKKLLAFEFTPFHKTIHDTVYQILHKEGRV
modifications: Protein translated from synthetic DNA
[1]
  configuration of product / stereoselectivity in words: inversion from the R configuration to the S configuration; also recorded: (S)-CPMA
[1]; S configuration product
  ee value, (S)-CPMA: 75.5%
[1]; [7]
  e.e.: 75.5 (S)
[2]; substrate [drawing 1]
  specific activity: 0.15 U/mg
[2]; substrate [drawing 2]
  specific activity: 0.07 U/mg
[2]; substrate [drawing 3]
  specific activity: 0.12 U/mg
[2]; substrate [drawing 4]
  specific activity: 3.10 U/mg
[2]; substrate [drawing 5]
  specific activity: 4.84 U/mg
[2]; [8]
  specific activity: 9.81 U/mg
[2]; substrate [drawing 7]
  specific activity: 10.26 U/mg
[2]; substrate [drawing 8]
  specific activity: 21.25 U/mg
[2]; [9]
  specific activity: 1.55 U/mg
[3]; [10]
  Stereoselectivity (ee): 99.5 (R)
[3]; [11]
  Stereoselectivity (ee): 93.8 (R)
[3]; [12]
  Stereoselectivity (ee): 96.2 (R)
[3]; [13]
  Stereoselectivity (ee): 91.4 (R)
[3]; [14]
  Stereoselectivity (ee): 93.3 (R)
[3]; substrate acetophenone, R configuration products
  ee value: 99.5%
[4]; substrate [drawing 13]
  Stereoselectivity (ee): 51.9 (R)
[4]; [15]
  Stereoselectivity (ee): 43.2 (S)
[4]; substrate [drawing 15]
  Stereoselectivity (ee): 86.2 (R)
[4]; substrate [drawing 18]
  Stereoselectivity (ee): 93.8 (S)
[5]; acetophenone 100 mM, 1 h
  Conversion rate: 42%
[5]; acetophenone 100 mM, 2 h
  Conversion rate: 53%
[5]; acetophenone 100 mM, 3 h
  Conversion rate: 65%
[5]; acetophenone 100 mM, 4 h
  Conversion rate: 77%
[5]; acetophenone 100 mM, 6 h
  Conversion rate: 95%
[5]; acetophenone 100 mM, 8 h
  Conversion rate: 99.0%
[5]; acetophenone 100 mM, 12 h
  Conversion rate: >99.9%
[5]; acetophenone 100 mM, 24 h
  Conversion rate: >99.9%
[5]; acetophenone 200 mM, 1 h
  Conversion rate: 35%
[5]; acetophenone 200 mM, 2 h
  Conversion rate: 49%
[5]; acetophenone 200 mM, 3 h
  Conversion rate: 60%
[5]; acetophenone 200 mM, 4 h
  Conversion rate: 72%
[5]; acetophenone 200 mM, 6 h
  Conversion rate: 85.9%
[5]; acetophenone 200 mM, 8 h
  Conversion rate: 93.6%
[5]; acetophenone 200 mM, 12 h
  Conversion rate: 99.2%
[5]; acetophenone 200 mM, 24 h
  Conversion rate: 99.7%
[5]; acetophenone 500 mM, 1 h
  Conversion rate: 20.9%
[5]; acetophenone 500 mM, 2 h
  Conversion rate: 34.5%
[5]; acetophenone 500 mM, 3 h
  Conversion rate: 49.6%
[5]; acetophenone 500 mM, 4 h
  Conversion rate: 62.6%
[5]; acetophenone 500 mM, 6 h
  Conversion rate: 77.9%
[5]; acetophenone 500 mM, 8 h
  Conversion rate: 88.6%
[5]; acetophenone 500 mM, 12 h
  Conversion rate: 92.9%
[5]; acetophenone 500 mM, 24 h
  Conversion rate: 99.2%

B2: E214Q/S237C: glutamine for glutamate at position 214 and cysteine for serine at position 237 of SEQ ID No. 2 (protein)
chain: B1 chain with G214Q
modifications: Protein translated from synthetic DNA
[6]
  Kcat: 7.06 ± 0.63 s⁻¹
  Km: 550 ± 20 µM
  Vmax: 10.59 ± 0.16 µM/min/mg
[1]
  configuration of product / stereoselectivity in words: inversion from the R configuration to the S configuration; also recorded: (S)-CPMA
[1]; [7]
  e.e.: 44.6 (S)
[2]; substrate [drawing 1]
  specific activity: 0.22 U/mg
[2]; substrate [drawing 2]
  specific activity: 0.12 U/mg
[2]; substrate [drawing 3]
  specific activity: 0.09 U/mg
[2]; substrate [drawing 4]
  specific activity: 5.65 U/mg
[2]; substrate [drawing 5]
  specific activity: 3.65 U/mg
[2]; [8]
  specific activity: 10.25 U/mg
[2]; substrate [drawing 7]
  specific activity: 9.89 U/mg
[2]; substrate [drawing 8]
  specific activity: 22.65 U/mg
[2]; [9]
  specific activity: 2.65 U/mg
[3]; [10]
  Stereoselectivity (ee): 96.5 (R)
[3]; [11]
  Stereoselectivity (ee): 93.5 (R)
[3]; [12]
  Stereoselectivity (ee): 97.6 (R)
[3]; [13]
  Stereoselectivity (ee): 92.6 (R)
[3]; [14]
  Stereoselectivity (ee): 93.3 (R)
[4]; substrate [drawing 13]
  Stereoselectivity (ee): 56.6 (R)
[4]; [15]
  Stereoselectivity (ee): 44.6 (S)
[4]; substrate [drawing 15]
  Stereoselectivity (ee): 88.6 (R)
[4]; substrate [drawing 18]
  Stereoselectivity (ee): 90.6 (R)

B3: WT: wild type alcohol dehydrogenase KpADH, amino acid sequence SEQ ID No. 2 (protein)
chain: B1 chain with G214E, C237S
modifications: Protein translated from synthetic DNA
[1]; R configuration product
  ee value, (R)-CPMA: 82% and 81.7%
[1]; [7]
  e.e.: 81.7 (R)
  ee %: 81.7 (R) %
[2]; substrate [drawing 1]
  specific activity: 0.99 U/mg
[2]; substrate [drawing 2]
  specific activity: 1.34 U/mg
[2]; substrate [drawing 3]
  specific activity: 4.15 U/mg
[2]; substrate [drawing 4]
  specific activity: 4.07 U/mg
[2]; substrate [drawing 5]
  specific activity: 12.09 U/mg
[2]; [8]
  specific activity: 20.67 U/mg
[2]; substrate [drawing 7]
  specific activity: 27.02 U/mg
[2]; substrate [drawing 8]
  specific activity: 39.77 U/mg
[2]; [9]
  specific activity: 41.84 U/mg
[3]; [10]
  Stereoselectivity (ee): 88.6 (R)
[3]; [11]
  Stereoselectivity (ee): 92.9 (R)
[3]; [12]
  Stereoselectivity (ee): 95.2 (R)
[3]; [13]
  Stereoselectivity (ee): 70.5 (S)
[3]; [14]
  Stereoselectivity (ee): 37.6 (R)
[4]; substrate [drawing 13]
  Stereoselectivity (ee): 27.5 (R)
[4]; [15]
  Stereoselectivity (ee): 83.7 (R)
[4]; substrate [drawing 15]
  Stereoselectivity (ee): 52.4 (S)
[4]; substrate [drawing 18]
  Stereoselectivity (ee): 27.3 (R)
[5]; 20 mL biocatalytic system, 30° C., pH 7.5
  ee in asymmetric synthesis of (R)-CPMA: 82%
[5]; CPMK 100 mM, 1 h
  Conversion rate: 50.5%
[5]; CPMK 100 mM, 2 h
  Conversion rate: 65.5%
[5]; CPMK 100 mM, 3 h
  Conversion rate: 79.5%
[5]; CPMK 100 mM, 4 h
  Conversion rate: 88.8%
[5]; CPMK 100 mM, 6 h
  Conversion rate: 98.5%
[5]; CPMK 100 mM, 8 h
  Conversion rate: >99.9%
[5]; CPMK 100 mM, 12 h
  Conversion rate: >99.9%
[5]; CPMK 100 mM, 24 h
  Conversion rate: >99.9%
[5]; CPMK 200 mM, 1 h
  Conversion rate: 35.6%
[5]; CPMK 200 mM, 2 h
  Conversion rate: 46.9%
[5]; CPMK 200 mM, 3 h
  Conversion rate: 62.0%
[5]; CPMK 200 mM, 4 h
  Conversion rate: 75.5%
[5]; CPMK 200 mM, 6 h
  Conversion rate: 95.6%
[5]; CPMK 200 mM, 8 h
  Conversion rate: 98.8%
[5]; CPMK 200 mM, 12 h
  Conversion rate: 99.4%
[5]; CPMK 200 mM, 24 h
  Conversion rate: 99.7%
[5]; CPMK 500 mM, 1 h
  Conversion rate: 22.5%
[5]; CPMK 500 mM, 2 h
  Conversion rate: 30%
[5]; CPMK 500 mM, 3 h
  Conversion rate: 55.6%
[5]; CPMK 500 mM, 4 h
  Conversion rate: 66.5%
[5]; CPMK 500 mM, 6 h
  Conversion rate: 80.2%
[5]; CPMK 500 mM, 8 h
  Conversion rate: 93.2%
[5]; CPMK 500 mM, 12 h
  Conversion rate: 95.6%
[5]; CPMK 500 mM, 24 h
  Conversion rate: 99.2%
